Experimental data: the DeepSol protein solubility set

experiment: soluble on expression in E. coli; label from the status in PepcDB or PDB records

Sequence	soluble on expression in E. coli
MSLNAQTKSLHQLQQEFVDLRCGMFIHFNMPTFFNEDWPDPDAAPELFNPVRMDCKQWAKAAKSANMTYGCLTTKHHSGFCIWDTKTTDYSVMSSPFKRDVVKEYADAFRAEGMKVMLYYSILDTHARLRPKCITPQHIEMIKEQLRELLTNYGEITALIIDGWDAPWSRISYDDVPFEDIYRLVKSIQPNCLVMDLNAAKYPAEALFYTDIKSYEQGAGQHISKDTNRLPALSCLPLQQNWFWKESFPTTPVKSPAQMVNDNIIPMGKSYCNFILNVAPNRDGLMDANALKALKEIGKLWKNDGRVATVPEADAPIISSNIAKYQPAEGTWSSDYAIMDFANDDDFGTCWNSNPEVKVPWYSVTFEREKSFNMVVITDRNNDRLQEYRLEYRAGGTWKPLYEGKAPTGLRVKIHRFDTVWGDAVRMTVLNSNGTTSIAEFGVYCEREGHHHHHH	soluble
MGSDKIHHHHHHVNGLPLVELSGDAYTQGWQHGRALREAIAANLRIYMTRFERELRIPPDEVWRRALRYAAVIAEQNQDYAAGMRGIAEGAGVDLAAIAALNVRYELFYQFFREYERGTGKPDGCTAFALLPSETDNGHLLVGENWDWIQGVRGAILRTIAPDGLRTLAFTEAGIFGGKIGLNAAGLALLINGLSSTGDDWASLRRPFHVRCYEILQARSLTEAQAVITSEERAGSANFLLAQVPDRVVNIEAAPAALAISGCTNGCLVHANHFTDPAALGIVERQIERYPHSYWRQERLRSLLASRPQSLAQVQAALRDHEQFPYSVCFHIDPADPPDEYYETVASVIMDVTAGVLYATDGPPCEHAYVRYELEVAR	not soluble
MITLHTNFGDIKIQLNFEKAPVTSANFEQYCREGFYDNTLFHRVIDGFMIQGGGMTSGLREKETRDPIRNEANNGLSNKVGTIAMARTMDPHSASSQFFINVNNNTFLDFRSESRDGWGYCVFGEVVEGMDIVNKIKGVSTGSYGMHQDVPLEEVVITGTTIEA	not soluble
GSMKKWSDTEVFEMLKRMYARVYGLVQGVGFRKFVQIHAIRLGIKGYAKNLPDGSVEVVAEGYEEALSKLLERIKQGPPAAEVEKVDYSFSEYKGEFEDFETY	soluble
MGSDKIHHHHHHDTEKKVSEEGFVFTTVKENPITSVKNQNRAGTCWCYSSYSFLESELLRMGKGEYDLSEMFTVYNTYLDRADAAVRTHGDVSFSQGGSFYDALYGMETFGLVPEEEMRPGMMYADTLSNHTELSALTDAMVAAIAKGKLRKLQSDENNAMLWKKAVAAVHQIYLGVPPEKFTYKGKEYTPKSFFESTGLKASDYVSLTSYTHHPFYTQFPLEIQDNWRHGMSYNLPLDEFMEVFDNAINTGYTIAWGSDVSESGFTRDGVAVMPDDEKVQELSGSDMAHWLKLKPEEKKLNTKPQPQKWCTQAERQLAYDNYETTDDHGMQIYGIAKDQEGNEYYMVKNSWGTNSKYNGIWYASKAFVRYKTMNIVVHKDALPKAIKAKLGIK	not soluble
MGSDKIHHHHHHMNISNSQVNRLRHFVRAGLRSLFRPEPQTAVEWADANYYLPKESAYQEGRWETLPFQRAIMNAMGSDYIREVNVVKSARVGYSKMLLGVYAYFIEHKQRNTLIPAGFVAVFNSDESSWHLVEDHRGKTVYDVASGDALFISELGPLPENVTWLSPEGEFQKWNGTAWVKDAEAEKLFRIREAEETKNSLMQVASEHIAPLQDAVDLEIATEEETSLLEAWKKYRVLLNRVDTSTAPDIEWPTNPVRE	not soluble
KDTIALVVSTLNNPFFVSLKDGAQKEADKLGYNLVVLDSQNNPAKELANVQDLTVRGTKILLINPTRSDAVGNAVKMANQANIPVITLDRQATKGEVVSHIASDNVLGGKIAGDYIAKKAGEGAKVIELQGIAGTSAARERGEGFQQAVAAHKFNVLASQPADFDRIKGLNVMQNLLTAHPDVQAVFAQNDEMALGALRALQTAGKSDVMVVGFDGTPDGEKAVNDGKLAATIAQLPDQIGAKGVETADKVLKGEKVQAKYPVDLKLVVKQ	soluble
MGSDKIHHHHHHMSKILSIIIPTYNAEKFLNKGLSSFLVCRDTDAQTAQHNCKMATEGRFEEIDIDKAILDKLEVIVVNDGTPDKSVEVAQKFVDWYPDTFVIVNKTNGGHGSAINTGVEHVRGKYLKVVDADDWVDTLALKKLITTLQVLEAAQEKQDTRVMDAMLMSYTTYDLQKAAKGDIPYEEHLVVPGTKHDKSVDIQNLGGPYSSQVIAKHFDDVYWGLTFHGILYNTAFYRGLAHKLAEGIFYEDQEYAAVPMAYADTIYVYDEQLYQYRIGDVSQSISMESSLKRLSHYETVIRTLIAEGGNSEEFAPGGKQIWGIKTAKFIDDYYQLCLIKNPDKKMLRDRMEKFTSEIKSADGYIYGLIEKNYKVFRMLNKLHMNEKVYQKVFIPMVHLIRK	not soluble
MVEATAQETDRPRFSFSIAAREGKARTGTIEMKRGVIRTPAFMPVGTAATVKALKPETVRATGADIILGNTYHLMLRPGAERIAKLGGLHSFMGWDRPILTDSGGFQVMSLSSLTKQSEEGVTFKSHLDGSRHMLSPERSIEIQHLLGSDIVMAFDECTPYPATPSRAASSMERSMRWAKRSRDAFDSRKEQAENAALFGIQQGSVFENLRQQSADALAEIGFDGYAVGGLAGGEGQDEMFRVLDFSVPMLPDDKPHYLMGVGKPDDIVGAVERGIDMFDCVLPTRSGRNGQAFTWDGPINIRNARFSEDLKPLDSECHCAVCQKWSRAYIHHLIRAGEILGAMLMTEHNIAFYQQLMQKIRDSISEGRFSQFAQDFRARYFARNS	soluble
MEDNRLVINRHRATQVLFQLVNISTQLSYQFFCKDSVLLLRIVQKIQSNSWLTSCCARKTVTTLRIKTQPANNKH	not soluble
MGSDKIHHHHHHMEIGQRFLVQLEETGQYFVNYQDGILIELAFDATVGKQSPAFSDLEHTAAYLEEHLRSHQTQALLLASKIHAYDASPVERITQMISIHSFFSTHRLVHPLNAYSTALLISRLEATDPQLQRTVELYRLAKKSHRFIVSPLLVSFLFLNALRRGEIATIHARIEATYDILKKRFGRSQQTYVTALLLALLPEDDQATYIAQVVQSRNLYRKHGIPLSFHGLLALLGDPRMHQTALEGLADQFRNTPHFKYRKDLVFLTAVRLYLADHPTLHQLFAPFSPSTLDDTSNLLPVYLFPVDLTDTSHATDGGMTDGGFDGGDGGGGGGD	not soluble
PWLENVQVQLSDLFSELKYNSVSGSGKIGIMASGVSALYVKEAVKGFEELFTLFRVGTVYPFPEKAALSFLKGIEKLIVVEELDPYLEEQALQLIGRAHLPADVYGKKNGFFPVSGEYNVDIIIDCINKVLAELGETSRLSHSAPAIPRSGLPPLPVRAPTLCAGCMHRTVFYAFKQASKQLKKDFQVETIFSGDIGCYTLGNAHPLNMVDTCLCMGAGMSIAGGLSRANPGVKQVAFIGDSTFFHSGIPAVINAVYNGSDVTLAVLDNRTTAMTGHQTHPGIGVTVLGSPSKAVDISDVIRSCGVELVRSVDIDSLENSLEGCIEAAKEAVEFKGPSAVVFKGKCVGITKPVIRFEIDTESCTGCGLCVKQLGCPALFLPAGEEKPVIQDSCSGCGLCAQVCPSGAIIETGVK	not soluble
MGSDKIHHHHHHMLDLKSYREKELASYDLDVELFNEFNFSVYNVMPLRKAFLISTDKGEKILKKIDYTIEEFKFVLAAVNYIKNENEFNRIIDFNKTQSGEYYCIKNGDLYCVMDMIEGKECEFSNPVDLSISSFGLGQLHSASEGFRYSKIASKNICGKMIKGFKRKKEEVNFLKKMVNLYESLNEFDEIFIKNVDYYLEQIDKSIDIMNKSQYYKLCSEEDKIVLCHHDLAHHNIIIKDEEAYFIDFDYAIIDLKVHDLSNIISKAAKVFNYSIDNSKIIISNYCKSNTLSKNEMEVLFGMLSFPEDFYEIVKSYYTKRKDWSNEEFINKMKRKMANEENRVEFLKNFKEDLKI	not soluble
SLEEKVRPCIDLIDSLRALGVEQDLALPAIAVIGDQSSGKSSVLEALSGVALPRGSGIVTRCPLVLKLKKLVNEDKWRGKVSYQDYEIEISDASEVEKEINKAQNAIAGEGMGISHELITLEISSRDVPDLTLIDLPGITRVAVGNQPADIGYKIKTLIKKYIQRQETISLVVVPSNVDIATTEALSMAQEVDPEGDRTIGILTKPDLVDKGTEDKVVDVVRNLVFHLKKGYMIVKCRGQQEIQDQLSLSEALQREKIFFENHPYFRDLLEEGKATVPCLAEKLTSELITHICKSLPLLENQIKETHQRITEELQKYGVDIPEDENEKMFFLIDKINAFNQDITALMQGEETVGEEDIRLFTRLRHEFHKWSTIIENNFQEGHKILSRKIQKFENQYRGRELPGFVNYRTFETIVKQQIKALEEPAVDMLHTVTDMVRLAFTDVSIKNFEEFFNLHRTAKSKIEDIRAEQEREGEKLIRLHFQMEQIVYCQDQVYRGALQKVREKELEEEKKKKSWDFGAFQSSSATDSSMEEIFQHLMAYHQEASKRISSHIPLIIQFFMLQTYGQQLQKAMLQLLQDKDTYSWLLKERSDTSDKRKFLKERLARLTQARRRLAQFPGEG	not soluble
MFTAKLIKGKTYNVMGITFRAGVSQTVPKKLYEYLNENPYFILTQELNNQKDDPINYTESELKGMNKAEHESIISNLGRNPSDFKNADERIAYILKQIDNKGELEHHHHHH	soluble
MKIVWYGHACFLVKTKGVSILIDPYPDVDEDRMEKVDYILITHEHMDHYGKTPLIAKLNDAEVIGPKTVYLMAISDGLTKVREVEADQEFQLGDVTVKTFYTEHPTSQYPLGYLILGEKRVAHLGDTYYSPGFRELRGQVDILLVPIGGRSTASEREAVDIIDIIRPRIVVPMHYGTYGSTGNVESFKRELQRRRVWVLVKDLKPYEGFEV	soluble
MSQNVYQFIDLQRVDPPKKPLKIRKIEFVEIYEPFSETQAKAQADRCLSCGNPYCEWKCPVHNYIPNWLKLANEGRIMEAADLAHQTNSLPEVCGRVCPQDRLCEGSCTLNDEFGAVTIGNIERYISDKAIAMGWKPDMSHVHPTGKRVAVIGAGPAGLACADVLARNGVQAVVFDRHPEIGGLLTFGIPAFKLEKEVMIKRRKIFSEMGIEFQLNTEVGKDITMEALLKDYDAVFLGVGTYQSMRGGLENEEANGVYDALPFLIANTKQLMGYEATAHEPYINMQGKRVVVLGGGDTAMDCVRSSIRQGATDVVCAYRRDEVNMPGSKREVKNAREEGVEFKFNLQPLSIEVNSNGKVCGVRMVRTQLGAPDAQGRRMAEQIPGSEHVLPADAVVMAFGFRPHSMEWLAAHDVKLDKQGRVIAPESTDNAFQTSNPKIFAGGDIVRGSDLVVTAIAEGRKAADGIMNYLEV	not soluble
MGHHHHHHSHMGRGSGTFERLLDKATSQLLLETDWESILQICDLIRQGDTQAKYAVNSIKKKVNDKNPHVALYALEVMESVVKNCGQTVHDEVANKQTMEELKDLLKRQVEVNVRNKILYLIQAWAHAFRNEPKYKVVQDTYQIMKVEGHVFPEFKESDAMFAAERAPDWVDAEECHRCRVQFGVMTRKHHCRACGQIFCGKCSSKYSTIPKFGIEKEVRVCEPCYEQLNRKAEGK	soluble
MGSSHHHHHHSQDPNSAAPAAEAPLSHVQQALAELAKPKDDPTRKHVCVQVAPAVRVAIAETLGLAPGATTPKQLAEGLRRLGFDEVFDTLFGADLTIMEEGSELLHRLTEHLEAHPHSDEPLPMFTSCCPGWIAMLEKSYPDLIPYVSSCKSPQMMLAAMVKSYLAEKKGIAPKDMVMVSIMPCTRKQSEADRDWFCVDADPTLRQLDHVITTVELGNIFKERGINLAELPEGEWDNPMGVGSGAGVLFGTTGGVMEAALRTAYELFTGTPLPRLSLSEVRGMDGIKETNITMVPAPGSKFEELLKHRAAARAEAAAHGTPGPLAWDGGAGFTSEDGRGGITLRVAVANGLGNAKKLITKMQAGEAKYDFVEIMACPAGCVGGGGQPRSTDKAITQKRQAALYNLDEKSTLRRSHENPSIRELYDTYLGEPLGHKAHELLHTHYVAGGVEEKDEKK	soluble
